Data reported in US10813554B2, “Medical imaging device and methods of use” (Lumicell, Inc., priority 2013, dated 2020).

Assay: Emission intensity of fluorophores exposed to different excitation wavelengths
Format: physicochemical
Details: shift in excitation wavelength
From the text: FIGS. 10A and 10B present graphs of emission intensities for two separate fluorphores, mPlum and cy5, exposed to different excitation wavelengths. As shown in FIG. 10A the shift in excitation wavelength yielded a decrease in emission intensity of about 96% for fluorphore 1 which was mPlum.

| Molecule | decrease in emission intensity (FIG. 10A) | increase in emission intensity |
| --- | --- | --- |
| mPlum | about 96% |  |
| CCN1/C(=C/C=C/C=C/C2=[N+](CCCCCC(=O)O)c3ccc(S(=O)(=O)O)cc3C2(C)C)C(C)(C)c2cc(S(=O)(=O)[O-])ccc21 [cy5] |  | about 156% |
